Assay results: article PMC4951694, “Structural and thermodynamic basis of proline-induced transmembrane complex stabilization” (Scientific Reports, 2016)

Target: T1, integrin β3(G690C/A711P) TM peptide of the disulfide-linked αIIb(A963C)–β3(G690C/A711P) dimer (human, UniProt P05106 711-753, C687S | G690C | A711P, not fully specified; C690 disulfide-linked to C963 of αIIb(A963C); 2H/13C/15N or 2H/15N labelling in some samples)
T1 construct: integrin β3, human, P685-F727; add 26 for P05106; source: E. coli
T1 chain (looked up): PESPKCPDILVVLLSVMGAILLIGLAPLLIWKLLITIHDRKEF
Assay: NMR structure; disulfide-linked dimer, 0.8 mM, in 350 mM DHPC, 105 mM DMPC bicelles (q 0.3), pH 7.4, 40 °C; interhelical NOEs and RDCs
Conditions: both partners purified

B1: integrin αIIb(A963C) TM peptide of the disulfide-linked αIIb(A963C)–β3(G690C/A711P) dimer (peptide)
chain: not shown
modifications: C963 disulfide-linked to C690 of β3(G690C/A711P); 2H/13C/15N, 2H/15N or fractionally deuterated labelling in some samples
notes: integrin αIIb, human, A958-P998; add 31 for P08514; source: E. coli
  binding result: binds
